# Laboratory results taken from US20140050749A1 (PURDUE PHARMA L P, published 2014).
# Where no end group is shown, it is not given here. [ ]: non-standard residue; d: D form. Gly(cPent) = N[C@H](C(=O)O)C1CCCC1
# B1: K-[cpg]-RRAIEQL (peptide)
# peptide: K[Gly(cPent)]RRAIEQL
# notes: Survivin 130-138 derivative
# B2: A-[cpg]-GIGILTV (peptide)
# peptide: AXGIGILTV
# modifications: [cpg] (L-cyclopentylglycine) at position 2
# notes: MART-1 nonamer derivative
# B3: Native Survivin 19-27 peptide ISTFKNWPF (peptide)
# peptide: ISTFKNWPF
# B4: Native Survivin 130-138 peptide KVRRAIEQL (peptide)
# peptide: KVRRAIEQL
# B5: E-[c5g]-AGIG-[amv]-LTV (peptide)
# peptide: EXAGIGXLTV
# modifications: [c5g] (aminocyclopentyl carboxylic acid) at position 2; [amv] at position 7 (abbreviation not defined in the filing)
# notes: MART-1 decamer derivative with a double substitution
# B6: I-[cpg]-TFKNWPF (peptide)
# peptide: I[Gly(cPent)]TFKNWPF
# notes: Survivin 19-27 derivative
# Molecular target: T1, HLA-A2 (HLA-A0201) MHC class I complex (human)
# T1 construct: the methods section names HLA-A0201; also called HLA-A201; MHCI
# Assay: ITopia soluble class I plate-based stability assay; reference is the native survivin peptide (SEQ ID NO: 31)
# Experimental: (§1) MHCI complexes were dissociated in each test well using stripping buffer, and the place-holder peptide and beta 2 microglobulin were washed away. 100 uM of the test peptide was added to appropriate wells along with additional beta 2 microglobulin and the anti-HLA ABC antibody, and the plates were incubated overnight at 21° C. Plates were washed, and fresh buffer was added to each well. Plates were shifted to 37° C., and the appropriate wells were read at 0, 0.5, 1, 1.5, 2, 4, 6 and 8 hours.
row,Binder,fold increase in the half life of the HLA-A2 peptide complex compared to the native survivin peptide [fold]
1,B1,> 20

# Molecular target: T1, HLA-A2 (HLA-A0201) MHC class I complex
# Assay: ITopia soluble class I plate-based stability assay, 37 C
# Experimental: as §1
row,Binder,Half Life of Complex [h]
1,B2,> 100
2,B3,0.24
3,B4,1.9
4,B1,50.6
5,B5,11.9
6,B6,1.9
